Experiment [1] concerns the target T1, IgG binding protein (Protein A homolog SpsQ/SpsP) on S. pseudintermedius AHDRCC 98200 (Staphylococcus pseudintermedius).
T1 construct: whole, on cells; also called S. pseudintermedius 98200; Staphylococcus pseudintermedius AHDRCC 98200
Put plainly: ELISA, coated S. pseudintermedius 98200, antibody 3.09E-07 M. For orientation: In an ELISA, binding on a coated surface is turned into a signal by an enzyme label.

Experiment [2] concerns the target T1, IgG binding protein (Protein A homolog …). Put plainly: ELISA, coated S. pseudintermedius 98200, antibody 1.18E-12 M.
The target of experiment [3] is T2, Protein A on the surface of S. aureus Newman wild-type (Staphylococcus aureus (strain Newman), UniProt P38507 37-477).
T2 construct: whole, on cells; also called S. aureus Newman WT; wild-type S. aureus expressing Protein A
Put plainly: flow cytometry; blocking antibody 1 ug/mL, then Alexa-488 Fc fragment (competitor) on wild-type S. aureus. (In flow cytometry, cells or beads pass a laser one at a time.)

Experiment [4] addresses T2, Protein A on the surface of S. aureus …. Put plainly: flow cytometry; blocking antibody 10 ug/mL, then Alexa-488 Fc fragment (competitor) on wild-type S. aureus.
Experiment [5] deals with T3, IgG binding protein (Protein A homolog SpsQ/SpsP) on MRSP S. pseudintermedius 88493 (Staphylococcus pseudintermedius).
T3 construct: whole, on cells; also called MRSP Staphylococcus pseudintermedius 88493 (methicillin-resistant)
Put plainly: ELISA, coated S. pseudintermedius 88493, antibody 4.82E-09 M.

The target of experiment [6] is T1, IgG binding protein (Protein A homolog …). As to the kind of experiment: ELISA, coated S. pseudintermedius 98200, antibody 7.54E-11 M.
In experiment [7] the target is T4, IgG binding protein (Protein A homolog SpsQ/SpsP) on S. intermedius 27369 (Staphylococcus intermedius).
T4 construct: whole, on cells; also called Staphylococcus intermedius 27369
Put plainly: ELISA, coated S. intermedius 27369, antibody 9.42E-12 M.

The target of experiment [8] is T2, Protein A on the surface of S. aureus …. As to the kind of experiment: ELISA on plate-coated S. aureus Newman WT (grown in TSB).
Experiment [9] has as its target T3, IgG binding protein (Protein A homolog …). Put plainly: ELISA, coated S. pseudintermedius 88493, antibody 1.47E-13 M.
For experiment [10], the target named is T2, Protein A on the surface of S. aureus …. Put plainly: ELISA, coated S. aureus Newman, antibody 7.54E-11 M.
Experiment [11] has the same target. As to the kind of experiment: ELISA, coated S. aureus Newman, antibody 9.42E-12 M.
The target in experiment [12] is T1, IgG binding protein (Protein A homolog …). As to the kind of experiment: ELISA, coated S. pseudintermedius 98200, antibody 6.03E-10 M.
Experiment [13] addresses T2, Protein A on the surface of S. aureus …. As to the kind of experiment: flow cytometry; blocking antibody 1 ug/mL, then Alexa-488 VH3 hIgG1*/* antibody (competitor) on wild-type S. aureus.
Experiment [14] has as its target T1, IgG binding protein (Protein A homolog …). As to the kind of experiment: ELISA, coated S. pseudintermedius 98200, antibody 3.86E-08 M.
Experiment [15] has as its target T2, Protein A on the surface of S. aureus …. As to the kind of experiment: ELISA, coated S. aureus Newman, antibody 1.47E-13 M.
For experiment [16] the target is unchanged. As to the kind of experiment: ELISA, coated S. aureus Newman, antibody 4.82E-09 M.
Experiment [17] concerns the target T4, IgG binding protein (Protein A homolog …). As to the kind of experiment: ELISA, coated S. intermedius 27369, antibody 3.86E-08 M.
The target in experiment [18] is T2, Protein A on the surface of S. aureus …. Put plainly: ELISA, coated S. aureus Newman, antibody 3.09E-07 M.
For experiment [19] the target is unchanged. Put plainly: ELISA on plate-coated S. aureus Newman WT.
Experiment [20] deals with T5, Protein A (purified reagent) (Staphylococcus aureus, UniProt P38507 37-477).
T5 construct: also called Protein A (Calbiochem, 539202-5 MG); Protein A reagent
As to the kind of experiment: SPR (Biacore), mAb captured by anti-human Fc, Protein A injected, 25 C.

For orientation: EC50 means the midpoint of the concentration-response curve. Higher therefore signals a need for much substance. As a reminder, the Kd is the equilibrium constant for the complex coming apart. Higher therefore signals lower affinity. The koff is the rate constant with which the complex falls apart. A word on the kon: it is the rate constant with which the complex forms. Low values mean slow association, high ones fast association. A word on the t½: it is how long it takes for the measured level to halve. Low readings indicate rapid decline, high ones slow decline.

B1: H1xH15140P*/* (anti-Protein A) (antibody, V domains shown)
VH: EVQLVESGGGLVQPGGSLTLSCTASGFSFSSYVMSWVRQSPGKGLEWVSAIGGSGTSTYYRDSVKGRFTISRDNSKNTLNLQMSSLRAEDTAVYYCARDGLGHRDYWGQGTLVTVSS
VL: DIQMTQSPSSVSASVGDRVTITCRASQGINSWLAWYQQKPGKAPKLLIYAASSLQSGVPSRFSGSGSGTDFTLTISSLQPEDFATYYCQQANSFPFTFGPGTKVDIK
notes: also called anti-Protein A hIgG1*/*; H1xH15140P*/*-L1
For the molecule B1, the ELISA luminescent signal in experiment [1] stood at 20600; in experiment [2], 5020; in experiment [5], 5970; in experiment [6], 4680; in [7] it was 1520; in experiment [9], 3470. Also, the ELISA luminescent signal was found to be 238000 in [10]; 60500 in [11]; 4890 in [12]; 6680 in [14]; 22000 in [15]; 828000 in experiment [16]. The ELISA luminescent signal stood at 8310 in experiment [17] and 979000 in experiment [18]. Further, the entries for the “Fc: S. aureus blocking activity (%)” value in [3] and in experiment [4] were 78% and 97%, respectively. Further, the concentration for a half-maximal effect (EC50) in [8] was found to be 90.6 pM; in [19], 15.4 pM. Also, the “VH3 antibody: S. aureus blocking activity (%)” value in [13] was 84.5%. In experiment [20], this molecule gave a Kd of 204 pM. In experiment [20], this molecule showed a koff of 7.78e-05 s⁻¹. The same molecule returned a kon in experiment [20] of 381000 M⁻¹ s⁻¹. In addition, in experiment [20], the t½ is 2.48 h.

The record behind these values is patent US20240301041A1 (Regeneron, published 2024).
